Patent US20030119727A1 (Genentech, published 2003)
Positions of bridges follow the written chain, without caps; N, C: chain ends. No end group written: not given here.

What was measured:
[1] = molecular target: T1, recombinant human Factor VIIa (human, UniProt P08709 61-212; P08709 213-466); assay: FVIIa Binding ELISA, competition with 20 nM TF147b on immobilized FVIIa
T1 construct: Immobilized directly on microtiter plates at 2 ug/ml; also called FVIIa
T1 sequence (looked up) 1: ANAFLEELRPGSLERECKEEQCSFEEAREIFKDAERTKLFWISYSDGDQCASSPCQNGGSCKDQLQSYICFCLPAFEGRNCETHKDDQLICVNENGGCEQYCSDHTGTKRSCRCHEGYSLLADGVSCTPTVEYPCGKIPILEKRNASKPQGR
T1 sequence (looked up) 2: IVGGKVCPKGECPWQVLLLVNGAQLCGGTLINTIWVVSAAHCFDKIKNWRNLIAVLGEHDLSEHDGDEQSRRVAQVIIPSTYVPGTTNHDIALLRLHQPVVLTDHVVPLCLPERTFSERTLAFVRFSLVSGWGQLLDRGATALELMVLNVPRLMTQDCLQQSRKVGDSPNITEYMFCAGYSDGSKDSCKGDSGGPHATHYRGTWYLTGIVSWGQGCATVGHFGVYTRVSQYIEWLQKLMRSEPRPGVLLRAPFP
Experimental: FVIIa Binding ELISA—The ability of peptides to compete with biotinylated versions of TF76 (e.g. TF147b, or other peptides described herein that could be biotinylated as described) for binding to FVIIa was monitored using a FVIIa Binding ELISA or a TF-FVIIa Binding ELISA. Microtiter plates were coated overnight with 2 μg/ml recombinant human FVIIa or 2 μg/ml TF₁₋₂₄₃ (Paborsky, L. R. et al. (1991) J. Biol. Chem. 266: 21911) in 50 mM ammonium bicarbonate pH 9 at 4° C.; all other steps were performed at room temperature. Plates were then blocked with 1% BSA in Assay Buffer (50 mM HEPES, pH 7.2, 5 mM CaCl₂, 150 mM NaCl). […] The microtiter plate was washed 3 times with Assay Buffer plus 0.05% Tween 20 and the biotinylated-peptide bound was detected with a Streptavidin/HRP conjugate (Streptavidin-POD, Roche Molecular Biochemicals). The amount of HRP bound was measured using ABTS/H₂O₂ substrate (Kirkegaard and Perry Laboratories) and monitoring the absorbance at 405 nm. The absorbance at 405 nm was plotted versus the concentration of peptide originally added to the well. Sigmoidal curves were fit to a four parameter equation by nonlinear regression analysis (Marquardt, J. Soc. Indust. Appl. Math. 11:431-441 (1963); the concentration of each peptide required to give a half-maximal signal in the assay was calculated from the curves and is referred to as the IC₅₀ value. […]

[2] = molecular target: T2, recombinant human Factor VIIa (human, UniProt P08709 61-212; P08709 213-466); assay: competition ELISA
T2 chain 1: T1 sequence (looked up) 1
T2 chain 2: T1 sequence (looked up) 2

BSA = molecular target: T3, BSA (UniProt P02769 25-607); assay: phage binding to coated wells
T3 construct: Control coating; also called bovine serum albumin

[3] = molecular target: T1, recombinant human Factor VIIa; assay: phage binding to coated wells

T3 sequence (P02769 25-607 limits assumed): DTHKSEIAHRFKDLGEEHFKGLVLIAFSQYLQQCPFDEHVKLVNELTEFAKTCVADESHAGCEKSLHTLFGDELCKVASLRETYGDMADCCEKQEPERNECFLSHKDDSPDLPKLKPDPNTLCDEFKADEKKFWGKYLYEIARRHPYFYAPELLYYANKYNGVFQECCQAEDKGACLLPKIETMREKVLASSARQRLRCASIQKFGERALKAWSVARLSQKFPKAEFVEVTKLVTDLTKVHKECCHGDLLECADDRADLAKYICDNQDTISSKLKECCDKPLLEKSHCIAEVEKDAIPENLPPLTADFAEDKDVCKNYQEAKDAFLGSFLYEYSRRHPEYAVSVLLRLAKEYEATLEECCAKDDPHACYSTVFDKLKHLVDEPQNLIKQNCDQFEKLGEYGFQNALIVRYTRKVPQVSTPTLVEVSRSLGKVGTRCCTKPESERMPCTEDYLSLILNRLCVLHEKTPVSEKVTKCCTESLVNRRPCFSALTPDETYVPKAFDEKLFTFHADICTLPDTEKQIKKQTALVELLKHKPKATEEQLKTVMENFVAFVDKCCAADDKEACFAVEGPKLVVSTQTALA

Work on SQAQRRAVGALCDNPRIDRWYCQFVEGGGGSSG (Fc fusion, cysteine pairing not given here; also: fused to human IgG1 Fc, dimer, not shown: Fc portion of the human IgG1) [TF151-Fc fusion] yielded an IC50 [1] of 3 nM.

Ac-ALCDDPRVDRWYCQFVEG-NH2 (disulfide 3-13 (inferred)) [peptide TF76 (Ac-ALCDDPRVDRWYCQFVEG-NH2)] gave an IC50 [2] of 21 nM.

B1: Phage bearing the TF56 peptide sequence EAALCDDPRLDRWYCIFAGE (Pool E clone, polyvalent phage display) (peptide)
peptide: EAALCDDPRLDRWYCIFAGE
modifications: not fully specified (bridges); cysteine pairing not given here; also: displayed on phage, coat protein fusion partner not given here
notes: also called this clone
B1: no binding (BSA); binds [3].

B2: peptide TF151 (peptide)
peptide: ALCDNPRIDRWYCQFVEG
modifications: disulfide 3-13 (inferred)
notes: Chemically synthesized, with the disulfide oxidized
Binder B2 has an IC50 [1] of 2 nM.
